Source: the supplement of paper PMC10724198
± gives the standard deviation of the averaged measurements.

Key:
Saccharomyces cerevisiae [1] = experiment: protein stability index of tFT-peptide fusion in deletion strain of DOA10 (PSI (0-1 scale)); higher = more stable (slower turnover)
Procedure: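 MPS profiling in S. cerevisiae of two library types built from selected 12-aa C-degron peptides (IN1, IN2, LN1, LN3, VN2, R1-R5, W1-W3, Atg1 and Rpa12 C-termini): saturation mutagenesis libraries and C-terminal +1 capping libraries (13 aa). Each peptide is fused to the C-terminus of a sfGFP-mCherry timer, after a GGGS linker. Cells are FACS-sorted into 8 mCherry/sfGFP bins and sequenced. PSI runs from 0 (unstable) to 1 (stable), measured once in wild type and in the das1Δ or doa10Δ background.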

Saccharomyces cerevisiae [2] = experiment: protein stability index of tFT-peptide fusion in wild type (PSI (0-1 scale)); higher = more stable (slower turnover); details: genetic background: wild type
Saccharomyces cerevisiae [3] = experiment: protein stability index of tFT-peptide fusion (C-terminal peptide) (PSI (0-1 scale)); higher = more stable (slower turnover)
Procedure: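 MPS profiling in S. cerevisiae of the tFT-X12 degron library: putative degron peptides plus stable controls, 12 aa, fused to the C-terminus of a sfGFP-mCherry timer. Cells are FACS-sorted into 8 mCherry/sfGFP bins and deep-sequenced. PSI runs from 0 (unstable) to 1 (stable). Backgrounds are wild type, das1Δ and doa10Δ at 30 °C, and wild type, das1Δ, cdc34-1 and cdc53-1 at 37 °C; 2-3 technical replicates each.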

Saccharomyces cerevisiae [4] = experiment: as above; details: genetic background: wild type; temperature: 30 C
[5] = genetic background: cdc34-1, temperature: 37 C
[6] = genetic background: cdc53-1, temperature: 37 C
[7] = genetic background: das1 deletion, temperature: 30 C
[8] = genetic background: das1 deletion, temperature: 37 C
[9] = genetic background: doa10 deletion, temperature: 30 C
[10] = genetic background: wild type, temperature: 30 C
[11] = genetic background: wild type, temperature: 37 C
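Throughout, for protein stability index of tFT-peptide fusion (C-terminal peptide): PSI is a weighted mean of sequencing reads over stability bins, variants kept only with over 10 reads, mCherry proximal and sfGFP distal, peptide attached via GGGS linker.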
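Throughout, for protein stability index of tFT-peptide fusion in deletion strain of DOA10: PSI per variant is the weighted mean of its sequencing read distribution over the sorted stability bins, counting only variants with over 10 reads summed across bins.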
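Throughout, for protein stability index of tFT-peptide fusion in wild type: PSI derived as read-weighted mean over the 8 sorting bins, only variants exceeding 10 total reads kept, mCherry placed adjacent to the peptide and sfGFP distal.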

Row | Sequence | protein stability index (Saccharomyces cerevisiae [1]) | protein stability index (Saccharomyces cerevisiae [2]) | other results
1 | CLVSLPILLFFR | 0.586 | 0.0566 | protein stability index (Saccharomyces cerevisiae [3]; [5]): 0.0435 ± 0.013; protein stability index (Saccharomyces cerevisiae [3]; [6]): 0.0381 ± 0.0045; protein stability index (Saccharomyces cerevisiae [3]; [7]): 0.0501 ± 0.019; protein stability index (Saccharomyces cerevisiae [3]; [8]): 0.0652 ± 0.014; protein stability index (Saccharomyces cerevisiae [3]; [9]): 0.545 ± 0.023; protein stability index (Saccharomyces cerevisiae [3]; [10]): 0.0298 ± 0.0067; protein stability index (Saccharomyces cerevisiae [3]; [11]): 0.0556 ± 0.015; protein stability index (Saccharomyces cerevisiae [4]): 0.0658 ± 0.021
2 | AITLPMCPLLLR | 0.649 | 0.207 | protein stability index (Saccharomyces cerevisiae [3]; [5]): 0.0636 ± 0.0091; protein stability index (Saccharomyces cerevisiae [3]; [6]): 0.047 ± 0.0088; protein stability index (Saccharomyces cerevisiae [3]; [7]): 0.165 ± 0.017; protein stability index (Saccharomyces cerevisiae [3]; [8]): 0.204 ± 0.014; protein stability index (Saccharomyces cerevisiae [3]; [9]): 0.6226 ± 0.0028; protein stability index (Saccharomyces cerevisiae [3]; [10]): 0.16 ± 0.027; protein stability index (Saccharomyces cerevisiae [3]; [11]): 0.157 ± 0.0086; protein stability index (Saccharomyces cerevisiae [4]): 0.256 ± 0.018
3 | RVTTLDAIYFRI | 0.661 | 0.524 | –
4 | RVTWLDAIYFRI | 0.656 | 0.323 | –
5 | RVTRLDAIRFRI | 0.652 | 0.616 | –
6 | APTLPMCPLLLR | 0.664 | 0.29 | –
7 | RSWRVLLPLYFR | 0.692 | 0.297 | –
8 | RALRVLLPLYFR | 0.669 | 0.353 | –
9 | RVTRLDAIGFRI | 0.696 | 0.69 | –
10 | CLVSLPILLFFRF | 0.483 | 0.0553 | –
11 | GLVSLPILLFFR | 0.608 | 0.0632 | –
12 | AITMPMCPLLLR | 0.677 | 0.285 | –
13 | GLYMCSVGCWER | 0.656 | 0.632 | –
14 | GLYMCLVGCWFR | 0.406 | 0.254 | –
15 | GLHMCSVGCWFR | 0.682 | 0.214 | –
16 | GLYMCWVGCWFR | 0.387 | 0.182 | –
17 | GLYMCSVQCWFR | 0.416 | 0.354 | –
18 | RLLRVLLPLYFR | 0.673 | 0.407 | –
19 | RSLRFLLPLYFR | 0.632 | 0.322 | –
20 | AITLCMCPLLLR | 0.665 | 0.487 | –
21 | RVTRLDAIYFRIY | 0.242 | 0.123 | –
22 | GLYMCSVNCWFR | 0.566 | 0.487 | –
23 | KITLPMCPLLLR | 0.653 | 0.253 | –
